Ends that are not written are not given here.
T1: synthetic biotinylated peptide mimotope having SEQ ID NO:1 (not fully specified (N-terminus))
T1 construct: chemically synthesized (Genosys); also called biotinylated mimotope peptide
T1 peptide: AWNWRYREYV


Tested on: mab C-34
Test: Neutralization of mab C-34 inhibition of ristocetin-induced aggregation in citrated platelet-rich plasma by mimotope peptide
Assay type: cell-based, human
Details: 0.14 μM peptide, 20 μg/ml mab C-34 (FIG. 3)
Procedure: (§1) Citrated human platelet-rich plasma (PRP) was prepared by standard methods (Miller et al. 1983). For study of C-34 neutralization by mimotope peptide, 350 μL of PRP containing 150,000 platelets/μL was incubated for 10 min at 22° C. with phosphate-buffered saline (PBS), 20 μg/mL C-34 mab, or 20 μg/mL C-34 that had previously been incubated for 30 min at 22° C. with varying concentrations of peptides. The PRP was then brought to 37° C. and stirred at 1200 rpm in a Chrono-Log lumi-aggregometer (Chrono-Log Corporation, Havertown, Pa.). Aggregation was initiated by the addition of 1 mg/mL ristocetin (Helena Laboratories, Beaumont, Tex.). For screening of bacteriophage clones displaying potential anti-mimotope peptides, 150 μl of PEG/NaCl precipitated phage was incubated with 250 μl of citrated PRP for one hour at 22° C., transferred to the aggregometer, following which ristocetin was added at a final concentration of 0.8 mg/ml.
A peptide including the consensus sequence (SEQ ID NO: 38) was chemically synthesized (Genosys Biotechnologies, The Woodlands, Tex.). […] A modification of this peptide with a biotin attached to the amino-terminal alanine (N-hydroxysuccinimide hexanoic acid long chain spacer arm biotinylation) was also synthesized. One mg of the chemically synthesized biotinylated peptide was dissolved in one ml of water containing 20 μl of DMSO. […] Accordingly, approximately 10 μg of C-34 was incubated at 22° C. for 30 minutes with varying concentrations of test or control peptide, following which the mixture was added to PRP in a final volume of approximately 0.5 ml for an additional 10 minutes at 22° C. […] A similar pattern of C-34 antibody neutralization was observed when the non-biotinylated form of the peptide (having SEQ ID NO:38) was used, with half-maximal neutralization at approximately 3.0 μM.

| Molecule | neutralization of C-34 inhibition of ristocetin-induced aggregation |
| --- | --- |
| AWNWRYREYV [SEQ ID NO:1] | continued inhibition |

Same assay, conditions: 0.27 μM peptide, 20 μg/ml mab C-34 (FIG. 4)

| Molecule | neutralization of C-34 inhibition of ristocetin-induced aggregation |
| --- | --- |
| AWNWRYREYV [SEQ ID NO:1] | partial neutralization |

Same assay, conditions: 0.55 μM peptide, 20 μg/ml mab C-34 (FIG. 5)

| Molecule | neutralization of C-34 inhibition of ristocetin-induced aggregation |
| --- | --- |
| AWNWRYREYV [SEQ ID NO:1] | partial neutralization |

Same assay, conditions: 1.1 μM peptide, 20 μg/ml mab C-34 (FIG. 6)

| Molecule | neutralization of C-34 inhibition of ristocetin-induced aggregation |
| --- | --- |
| AWNWRYREYV [SEQ ID NO:1] | partial neutralization |

Same assay, conditions: 2.3 μM peptide, 20 μg/ml mab C-34 (FIG. 7)

| Molecule | neutralization of C-34 inhibition of ristocetin-induced aggregation |
| --- | --- |
| AWNWRYREYV [SEQ ID NO:1] | complete neutralization |

Same assay, conditions: 20 μg/mL C-34, citrated PRP, 1 mg/mL ristocetin; read-out: half-maximal neutralization of the C-34

| Molecule | EC50 |
| --- | --- |
| WNWRYREYV [SEQ ID NO:38] | ~3000 nM |

Tested on: platelets
Test: Effect of mimotope peptide by itself on platelet aggregation and on ADP-induced aggregation
Assay type: cell-based, human
Details: non-specific effects

| Molecule | influence on ADP-induced aggregation |
| --- | --- |
| AWNWRYREYV [SEQ ID NO:1] | no influence |

Same assay, conditions: peptide alone, PRP

| Molecule | induction of platelet aggregation by the peptide by itself |
| --- | --- |
| AWNWRYREYV [SEQ ID NO:1] | did not induce platelet aggregation |

Tested on: formalin-fixed platelets
Test: not given
Assay type: cell-based, human
Details: not given
Procedure: as §1
Further studies were undertaken with chemically synthesized peptide having SEQ ID NO:94: […]. This decapeptide was able to inhibit ristocetin-induced aggregation fully, with an IC50 occurring between 200–400 μg/mL (FIG. 9). […] In order to approximate more closely the native structure, peptides with an (Arg→Lys) substitution at position 7 were then studied. […] Whereas the […] Finally, both the wild-type GPIb alpha 228–237 peptide (SEQ ID NO:108) containing Gly at residue 233 and the PT-vWD variant with Val replacing Gly at this position (SEQ ID NO:107) were synthesized. […] Lyophilized peptides were reconstituted in PBS, pH 6.0 and 150 μL of varying dilutions incubated for 2–4 hr at 22° C. with 250 μL of formalin-fixed platelets ([…]), prior to aggregometry in which the addition of 1 U/mL purified vWF was followed by the addition of 0.9 mg/mL ristocetin.

| Molecule | IC50 for inhibition of ristocetin-induced aggregation |
| --- | --- |
| YVWKQVVDVK [SEQ ID NO:107] | approximately 400 μg/mL |

Same assay, conditions: by 715 μg/mL peptide, formalin-fixed platelets

| Molecule | inhibition of ristocetin-induced aggregation |
| --- | --- |
| SEQ ID NO:104: RHVAWWRQGV decapeptide with a (Gly→Val) substitution at position 9, corresponding to the mutation observed in PT-vWD (RHVAWWRQVV) | nearly full inhibition |

Same assay, conditions: formalin-fixed platelets, 1 U/mL purified vWF, 0.9 mg/mL ristocetin

| Molecule | inhibition of ristocetin-induced aggregation (extent, in words) |
| --- | --- |
| RHVAWWKQGV [SEQ ID NO:106] | unable to exert more than slight inhibition, except at the highest concentrations tested |
| SEQ ID NO:108: wild-type GPIb alpha 228–237 peptide containing Gly at residue 233 (YVWKQGVDVK) | virtually without inhibitory activity |
| RHVAWWKQVV [SEQ ID NO:105] | retained potent inhibitory activity |
| YVWKQVVDVK [SEQ ID NO:107] | fully inhibiting |

Target: monoclonal antibody C-34
Test: clone count after phage biopanning on biotinylated C-34
Details: not given

| Molecule | Frequency |
| --- | --- |
| TQMWRAREYL [C34 Clone SEQ ID NO:5] | 2 |
| FVDPGRAGRG [C34 Clone SEQ ID NO:21] | 1 |
| GGVCKCWQCL [C34 Clone SEQ ID NO:16] | 1 |
| RVLRHWHPRT [C34 Clone SEQ ID NO:13] | 1 |
| FSHSYGSAIR [C34 Clone SEQ ID NO:17] | 1 |
| MNWKHWRARH [C34 Clone SEQ ID NO:10] | 1 |
| TMWVELYSLK [C34 Clone SEQ ID NO:20] | 1 |
| FKWREWRGKL [C34 Clone SEQ ID NO:11] | 1 |
| LSTWRYFEYV [C34 Clone SEQ ID NO:3] | 14 |
| PDRQVRLWVR [C34 Clone SEQ ID NO:12] | 1 |
| YLGWRYSEYV [C34 Clone SEQ ID NO:4] | 7 |
| AWNWRYREYV [C34 Clone SEQ ID NO:1] | 52 |
| MHGHRRPGLA [C34 Clone SEQ ID NO:18] | 1 |
| WRQREYWDPV [C34 Clone SEQ ID NO:6] | 1 |
| KWNWRNKKYV [C34 Clone SEQ ID NO:2] | 1 |
| EGSWRYRKGG [C34 Clone SEQ ID NO:7] | 1 |
| KRAWWKQKWV [C34 Clone SEQ ID NO:66] | 1 |
| MSKKPHLGLR [C34 Clone SEQ ID NO:19] | 1 |
| KGFLWRARNW [C34 Clone SEQ ID NO:9] | 1 |
| GRRVWMLNHG [C34 Clone SEQ ID NO:14] | 2 |
| GYHWWRNWEY [C34 Clone SEQ ID NO:8] | 2 |
| KKGRHHVTRV [C34 Clone SEQ ID NO:15] | 22 |

Target: T1, synthetic biotinylated peptide mimotope …
Test: phage biopanning on biotinylated mimotope peptide SEQ ID NO:1
Details: not given
Procedure: For studies directed towards discovering a peptide binding the mimotope peptide (SEQ ID NO:1: […]), two rounds of biopanning against the original decapeptide library were performed, using 1 µg of biotinylated mimotope peptide in the first round and 0.01 µg in the second round. Resulting yields were 3 ×10^-6% and 2 ×10^-3%, respectively.

| Molecule | binding result |
| --- | --- |
| KKWGQHRQRS [anti-mimotope clone SEQ ID NO:158] | binds |
| WRWMHWMPHA [anti-mimotope clone SEQ ID NO:159] | binds |
| RGWRWHKYWQ [anti-mimotope clone SEQ ID NO:162] | binds |
| SVRHIWFHVK [anti-mimotope clone SEQ ID NO:168] | binds |
| GTWDLWRKGS [anti-mimotope clone SEQ ID NO:169] | binds |
| RHVAWWRQGV [anti-mimotope clone SEQ ID NO:94] | binds |
| WVRGHHREVR [anti-mimotope clone SEQ ID NO:172] | binds |
| KHFMRHRHGV [anti-mimotope clone SEQ ID NO:96] | binds |
| VAKWRHWNRQ [anti-mimotope clone SEQ ID NO:99] | binds |
| HSPFRHVQPR [anti-mimotope clone SEQ ID NO:171] | binds |
| RWLWPRVHKT [anti-mimotope clone SEQ ID NO:170] | binds |
| RRSTWHWWHA [anti-mimotope clone SEQ ID NO:98] | binds |
| WHWLARHRTV [anti-mimotope clone SEQ ID NO:160] | binds |
| AKHRWWRRPV [anti-mimotope clone SEQ ID NO:95] | binds |
| RHRHRGFQPR [anti-mimotope clone SEQ ID NO:161] | binds |
| LSCRGCRAFV [anti-mimotope clone SEQ ID NO:166] | binds |
| KRHAWMKSRL [anti-mimotope clone SEQ ID NO:163] | binds |
| AGLNHWWKHK [anti-mimotope clone SEQ ID NO:97] | binds |
| LLLVGGSELT [anti-mimotope clone SEQ ID NO:164] | binds |
| KKVWMFSYNE [anti-mimotope clone SEQ ID NO:165] | binds |
| HEGCEAQDEL [anti-mimotope clone SEQ ID NO:167] | binds |

Source: patent publication US7074888B1, “Mimotopes and anti-mimotopes of human platelet glycoprotein Ib/IX” (The Research Foundation of State University of New York, priority 1995, dated 2006)
